The values that follow are results of earlier work, collected in paper PMC5705969.

The Kd is a measure of binding affinity in units of concentration.

Some targets named below: Kv1.2 (UniProt P16389); Kv1.1 (UniProt Q09470); Kv1.3 (UniProt P22001).
Sequence of UniProt P22001 (P22001 whole entry): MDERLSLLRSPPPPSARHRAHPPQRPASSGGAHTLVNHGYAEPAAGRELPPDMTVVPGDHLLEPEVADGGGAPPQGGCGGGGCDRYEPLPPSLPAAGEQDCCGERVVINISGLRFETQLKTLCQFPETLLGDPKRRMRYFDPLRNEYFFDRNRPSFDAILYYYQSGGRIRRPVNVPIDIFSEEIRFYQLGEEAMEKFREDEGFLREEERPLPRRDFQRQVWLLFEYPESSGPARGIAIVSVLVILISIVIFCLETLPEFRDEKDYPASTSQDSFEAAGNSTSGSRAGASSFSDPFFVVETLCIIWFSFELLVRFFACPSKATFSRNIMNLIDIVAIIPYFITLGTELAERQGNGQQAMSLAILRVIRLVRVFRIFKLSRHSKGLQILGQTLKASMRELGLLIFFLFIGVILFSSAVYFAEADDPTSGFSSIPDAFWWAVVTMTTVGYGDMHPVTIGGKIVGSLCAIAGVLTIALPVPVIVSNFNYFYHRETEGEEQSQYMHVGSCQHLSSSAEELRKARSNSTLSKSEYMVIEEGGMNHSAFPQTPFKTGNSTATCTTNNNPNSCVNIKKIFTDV
Sequence of UniProt P16389 (P16389 whole entry): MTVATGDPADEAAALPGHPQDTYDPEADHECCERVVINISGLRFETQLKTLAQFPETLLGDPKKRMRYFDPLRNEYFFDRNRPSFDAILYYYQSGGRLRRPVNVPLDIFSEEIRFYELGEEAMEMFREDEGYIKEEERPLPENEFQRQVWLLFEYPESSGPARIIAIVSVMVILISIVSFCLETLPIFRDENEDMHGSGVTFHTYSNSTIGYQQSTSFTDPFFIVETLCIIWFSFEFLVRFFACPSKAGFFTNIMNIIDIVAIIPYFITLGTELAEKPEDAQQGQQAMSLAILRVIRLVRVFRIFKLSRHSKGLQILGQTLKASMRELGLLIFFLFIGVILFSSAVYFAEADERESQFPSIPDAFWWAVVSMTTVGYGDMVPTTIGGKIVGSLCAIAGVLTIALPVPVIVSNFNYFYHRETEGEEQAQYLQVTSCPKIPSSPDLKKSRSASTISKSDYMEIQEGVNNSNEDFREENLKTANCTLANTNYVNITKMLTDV
Sequence of UniProt Q09470 (Q09470 whole entry): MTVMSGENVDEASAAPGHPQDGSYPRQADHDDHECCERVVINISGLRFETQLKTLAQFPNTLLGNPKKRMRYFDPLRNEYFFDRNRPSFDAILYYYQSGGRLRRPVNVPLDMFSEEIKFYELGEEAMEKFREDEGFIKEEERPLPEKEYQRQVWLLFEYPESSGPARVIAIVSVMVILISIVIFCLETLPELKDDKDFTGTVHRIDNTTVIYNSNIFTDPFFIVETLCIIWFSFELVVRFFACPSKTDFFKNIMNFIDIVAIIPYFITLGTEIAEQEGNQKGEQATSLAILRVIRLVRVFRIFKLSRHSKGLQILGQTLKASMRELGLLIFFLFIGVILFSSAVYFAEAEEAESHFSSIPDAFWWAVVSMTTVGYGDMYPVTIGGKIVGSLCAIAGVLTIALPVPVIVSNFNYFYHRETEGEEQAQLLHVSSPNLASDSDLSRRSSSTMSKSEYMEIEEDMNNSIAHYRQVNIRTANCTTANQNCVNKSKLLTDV

Consider AgTx-2 (from UniProt P46111), for which the Kd in the data set with Kv1.2 was 3.4 nM; with Kv1.1, 0.13 nM; with Kv1.3, 0.05 nM.
